T1: H7CR-GFP fusion protein on transfected CHO cells (Homo sapiens (Human), UniProt Q96BF3 23-282)
T1 construct: not shown: GFP part
T1 sequence: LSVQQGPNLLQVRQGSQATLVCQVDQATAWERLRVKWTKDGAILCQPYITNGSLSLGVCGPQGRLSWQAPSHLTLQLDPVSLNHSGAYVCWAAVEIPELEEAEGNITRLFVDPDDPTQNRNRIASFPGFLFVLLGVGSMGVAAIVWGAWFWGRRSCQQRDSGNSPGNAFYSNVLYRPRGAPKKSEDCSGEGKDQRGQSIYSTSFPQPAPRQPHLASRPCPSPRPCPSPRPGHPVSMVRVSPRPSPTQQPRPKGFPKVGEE

T2: human H7CR (B7-H7 counter-receptor) (human, UniProt Q96BF3 23-282)
T2 construct: Used for H7CR on CHO.hH7CR transfectants, human T cells and tonsil tissue; also called B7-H7CR; CD28H
T2 sequence: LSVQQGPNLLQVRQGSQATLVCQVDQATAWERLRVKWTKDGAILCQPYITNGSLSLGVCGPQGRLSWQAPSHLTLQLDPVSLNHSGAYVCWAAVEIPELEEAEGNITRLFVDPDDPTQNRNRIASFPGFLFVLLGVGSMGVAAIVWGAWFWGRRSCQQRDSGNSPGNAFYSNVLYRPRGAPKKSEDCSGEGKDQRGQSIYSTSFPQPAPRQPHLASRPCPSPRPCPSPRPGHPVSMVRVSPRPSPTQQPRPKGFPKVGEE

B1: 4.5 humanized variant 31 (HC2-3 / LC1-1) (antibody, V domains shown)
VH: QIQLKESGPTLVKPTQTLTLTCTVSGFSITTGGYYWNWIRQPPGKKLEWMALIYTSGRTSYNPSLKSRLTITKDTSKNQVVLTMTNMDPVDTATYYCADMADKGGWFAYWGQGTLVTVSS
VL: DIVMTQSPDSLAVSLGERATINCKSSQSLFSSNTKRNYLAWYQQKPGQPPKLLIYHASTRESGVPDRFSGSGSGTDFTLTISSLQAEDVAVYYCQQHYETPLTFGQGTRLEIK
notes: Variable domains only; detected with anti-hIg secondary; also called VH2C / VL1A
B2: 4.5 humanized variant 29 (HC2-2 / LC2-2) (antibody, V domains shown)
VH: QITLKESGPTLVKPTQTLTLTCTVSGFSITTGGYYWNWIRQPPGKKLEWLALIYTSGRTSYNPSLKSRLTITKDTSKNQVVLTMTNMDPVDTATYYCADMADKGGWFAYWGQGTLVTVSS
VL: DIVMTQTPLSLPVTPGEPASISCRSSQSLFSSNTKRNYLNWYLQKPGQSPKLLIYHASTRLSGVPDRFSGSGSGTDFTLKISRVEAEDVGDYFCQQHYETPLTFGDGTRLEIK
notes: Variable domains only; detected with anti-hIg secondary; also called VH2B / VL2B
B3: 4.5 humanized variant 36 (HC2-3 / LC2-3) (antibody, V domains shown)
VH: QIQLKESGPTLVKPTQTLTLTCTVSGFSITTGGYYWNWIRQPPGKKLEWMALIYTSGRTSYNPSLKSRLTITKDTSKNQVVLTMTNMDPVDTATYYCADMADKGGWFAYWGQGTLVTVSS
VL: DIVMTQTPSSLPVTPGEPASISCLSSQSLFSSNTKRNYLNWYLQKPGQSPKLLIYHASTRLSGVPDRFSGSGSGTDFTLKISRVEAEDVGDYFCQQHYETPLTFGDGTRLEIK
notes: Variable domains only; detected with anti-hIg secondary; also called VH2C / VL2C
B4: 4.5 humanized variant 34 (HC2-3 / LC2-1) (antibody, V domains shown)
VH: QIQLKESGPTLVKPTQTLTLTCTVSGFSITTGGYYWNWIRQPPGKKLEWMALIYTSGRTSYNPSLKSRLTITKDTSKNQVVLTMTNMDPVDTATYYCADMADKGGWFAYWGQGTLVTVSS
VL: DIVMTQTPLSLPVTPGEPASISCRSSQSLFSSNTKRNYLDWYLQKPGQSPQLLIYHASYRASGVPDRFSGSGSGTDFTLKISRVEAEDVGVYYCQQHYETPLTFGQGTRLEIK
notes: Variable domains only; detected with anti-hIg secondary; also called VH2C / VL2A
B5: 4.5 humanized variant 35 (HC2-3 / LC2-2) (antibody, V domains shown)
VH: QIQLKESGPTLVKPTQTLTLTCTVSGFSITTGGYYWNWIRQPPGKKLEWMALIYTSGRTSYNPSLKSRLTITKDTSKNQVVLTMTNMDPVDTATYYCADMADKGGWFAYWGQGTLVTVSS
VL: DIVMTQTPLSLPVTPGEPASISCRSSQSLFSSNTKRNYLNWYLQKPGQSPKLLIYHASTRLSGVPDRFSGSGSGTDFTLKISRVEAEDVGDYFCQQHYETPLTFGDGTRLEIK
notes: Variable domains only; detected with anti-hIg secondary; also called VH2C / VL2B
B6: 4.5 humanized variant 30 (HC2-2 / LC2-3) (antibody, V domains shown)
VH: QITLKESGPTLVKPTQTLTLTCTVSGFSITTGGYYWNWIRQPPGKKLEWLALIYTSGRTSYNPSLKSRLTITKDTSKNQVVLTMTNMDPVDTATYYCADMADKGGWFAYWGQGTLVTVSS
VL: DIVMTQTPSSLPVTPGEPASISCLSSQSLFSSNTKRNYLNWYLQKPGQSPKLLIYHASTRLSGVPDRFSGSGSGTDFTLKISRVEAEDVGDYFCQQHYETPLTFGDGTRLEIK
notes: Variable domains only; detected with anti-hIg secondary; also called VH2B / VL2C
B7: 4.5 humanized variant 32 (HC2-3 / LC1-2) (antibody, V domains shown)
VH: QIQLKESGPTLVKPTQTLTLTCTVSGFSITTGGYYWNWIRQPPGKKLEWMALIYTSGRTSYNPSLKSRLTITKDTSKNQVVLTMTNMDPVDTATYYCADMADKGGWFAYWGQGTLVTVSS
VL: DIVMTQSPDSLAVSLGERATINCKSSQSLFSSNTKRNYLNWYQQKPGQPPKLLIYHASTRLSGVPDRFSGSGSGTDFTLTISSLQAEDVADYFCQQHYETPLTFGDGTRLEIK
notes: Variable domains only; detected with anti-hIg secondary; also called VH2C / VL1B
B8: 4.5 humanized variant 33 (HC2-3 / LC1-3) (antibody, V domains shown)
VH: QIQLKESGPTLVKPTQTLTLTCTVSGFSITTGGYYWNWIRQPPGKKLEWMALIYTSGRTSYNPSLKSRLTITKDTSKNQVVLTMTNMDPVDTATYYCADMADKGGWFAYWGQGTLVTVSS
VL: DIVMTQSPDSLAVSLGERATINCLSSQSLFSSNTKRNYLNWYQQKPGQSPKLLIYHASTRLSGVPDRFSGSGSGTDFTLTISSLQAEDVADYFCQQHYETPLTFGDGTRLEIK
notes: Variable domains only; detected with anti-hIg secondary; also called VH2C / VL1C

Experiments:
[1] = biological target: T1, H7CR-GFP fusion protein on transfected …; test: flow cytometry, 5 µg/ml variant on H7CR-GFP transfected CHO cells, anti-hIg PE secondary antibody [row HC2-3, column LC1-1]
Experimental: (§1) 5 μg/ml antibodies from thirty-six variants were incubated with H7CR-GFP fusion protein transfected CHO cells for 30 min at room temperature. Cells were then washed twice with 2 ml flow cytometry buffer, and resuspended in 100 μl flow cytometry buffer. 1 μl anti-hIg PE secondary antibody (Biolegend) was added and incubated with the cells for 15 mins Samples were then washed and resuspended in 100 μl flow cytometry buffer. Flow Cytometry data was acquired using BD Canto (BD Biosciences) in plate format and analyzed by FlowJo software.

[2] = biological target: T2, human H7CR (B7-H7 counter-receptor); test: binding to human H7CR as endogenously expressed on the surface of a cell
[3] = biological target: T1, H7CR-GFP fusion protein on transfected …; test: flow cytometry, 5 µg/ml variant on H7CR-GFP transfected CHO cells, anti-hIg PE secondary antibody [row HC2-2, column LC2-2]
Experimental: as §1

[4] = biological target: T1, H7CR-GFP fusion protein on transfected …; test: flow cytometry, 5 µg/ml variant on H7CR-GFP transfected CHO cells, anti-hIg PE secondary antibody [row HC2-3, column LC2-3]
Experimental: as §1

[5] = biological target: T1, H7CR-GFP fusion protein on transfected …; test: flow cytometry, 5 µg/ml variant on H7CR-GFP transfected CHO cells, anti-hIg PE secondary antibody [row HC2-3, column LC2-1]
Experimental: as §1

[6] = biological target: T1, H7CR-GFP fusion protein on transfected …; test: flow cytometry, 5 µg/ml variant on H7CR-GFP transfected CHO cells, anti-hIg PE secondary antibody [row HC2-3, column LC2-2]
Experimental: as §1

[7] = biological target: T1, H7CR-GFP fusion protein on transfected …; test: flow cytometry, 5 µg/ml variant on H7CR-GFP transfected CHO cells, anti-hIg PE secondary antibody [row HC2-2, column LC2-3]
Experimental: as §1

[8] = biological target: T1, H7CR-GFP fusion protein on transfected …; test: flow cytometry, 5 µg/ml variant on H7CR-GFP transfected CHO cells, anti-hIg PE secondary antibody [row HC2-3, column LC1-2]
Experimental: as §1

[9] = biological target: T1, H7CR-GFP fusion protein on transfected …; test: flow cytometry, 5 µg/ml variant on H7CR-GFP transfected CHO cells, anti-hIg PE secondary antibody [row HC2-3, column LC1-3]
Experimental: as §1

Binder | binding result [2] | other results
B1 | binds | binding result [1]: binds
B2 | binds | binding result [3]: binds
B3 | binds | binding result [4]: binds
B4 | binds | binding result [5]: binds
B5 | binds | binding result [6]: binds
B6 | binds | binding result [7]: binds
B7 | binds | binding result [8]: binds
B8 | binds | binding result [9]: binds

From patent US20160024210A1 (AstraZeneca / MedImmune, published 2016)
